{"source": "the supplement of paper PMC7125110", "parents": {"B1": {"name": "glmS ribozyme (parent)", "chain": "AUAAAAGCGCCAGAACUACAGAAAUGUAGUUGACGAGGAGGAGGUUUAUCGAAUUUUCGGCGGAUGCCUCCAAA"}}, "note": "± gives the standard error. Variants at the floor of the assay were thinned out.", "data": [{"variants_of": "B1", "experiment": "self-cleavage kobs at 2500 uM GlcN6P; higher = faster cleavage; RNA array", "details": "with glucosamine-6-phosphate", "how_it_was_run": "(§1)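 The measurements used barcoded ribozyme variants on sequenced MiSeq chips, transcribed in situ by E. coli RNA polymerase and tracked at 37 °C with a hybridised Cy3 probe. Glucosamine-6-phosphate, 40 μM to 10 mM in HEPES/KCl/Mg(OAc)2 buffer, was flowed in while tiles were imaged over ~14 h. Baseline-normalised signals, also normalised to non-cleaving reference variants, gave per-tile medians that were fit to one- or two-exponential decays for kobs. kcat and KM resulted from weighted Michaelis–Menten fits across concentrations.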", "units": {"self-cleavage kobs at 2500 uM GlcN6P": "s⁻¹"}, "values": [{"variant": "G43C G51C G59U", "self-cleavage kobs at 2500 uM GlcN6P": "< 1e-05"}, {"variant": "C34A G38U G40A G44C U55C C70G", "self-cleavage kobs at 2500 uM GlcN6P": "< 1e-05"}, {"variant": "A14U A15U C16U", "self-cleavage kobs at 2500 uM GlcN6P": "5.74e-05 ± 2.3e-05"}, {"variant": "C11U A39U U49A U69C", "self-cleavage kobs at 2500 uM GlcN6P": "< 1e-05"}, {"variant": "C50A U65G U69G C70A", "self-cleavage kobs at 2500 uM GlcN6P": "8e-05 ± 2.9e-05"}, {"variant": "C16G G51A G60A G63A C70A", "self-cleavage kobs at 2500 uM GlcN6P": "4.28e-05 ± 1.9e-05"}, {"variant": "A12C U31C U54A C67A", "self-cleavage kobs at 2500 uM GlcN6P": "6.33e-05 ± 2e-05"}, {"variant": "G43A G66U C67U C71U", "self-cleavage kobs at 2500 uM GlcN6P": "< 1e-05"}, {"variant": "G29C G37A G43C U69A", "self-cleavage kobs at 2500 uM GlcN6P": "< 1e-05"}, {"variant": "A12U A64G C67G", "self-cleavage kobs at 2500 uM GlcN6P": "7.12e-05 ± 2.2e-05"}, {"variant": "A12G A39C G51U U56A", "self-cleavage kobs at 2500 uM GlcN6P": "< 1e-05"}, {"variant": "G7A A33C C58U U65G C70G", "self-cleavage kobs at 2500 uM GlcN6P": "< 1e-05"}, {"variant": "U45C U46C C70A", "self-cleavage kobs at 2500 uM GlcN6P": "0.000116 ± 4.4e-05"}, {"variant": "C16U U31G G41C C67U", "self-cleavage kobs at 2500 uM GlcN6P": "< 1e-05"}, {"variant": "G9C A42C A48C C58G C71G", "self-cleavage kobs at 2500 uM GlcN6P": "< 1e-05"}, {"variant": "C34U U46G G66U", "self-cleavage kobs at 2500 uM GlcN6P": "< 1e-05"}, {"variant": "G26U A33U", "self-cleavage kobs at 2500 uM GlcN6P": "0.000111 ± 2.1e-05"}, {"variant": "G40U A42G C70U", "self-cleavage kobs at 2500 uM GlcN6P": "0.00344 ± 0.00066"}, {"variant": "C8A G32U G37U", "self-cleavage kobs at 2500 uM GlcN6P": "< 1e-05"}, {"variant": "G7A A14G G38A", "self-cleavage kobs at 2500 uM GlcN6P": "< 1e-05"}, {"variant": "C8A C11U C70U", "self-cleavage kobs at 2500 uM GlcN6P": "< 1e-05"}, {"variant": "U30C G35U U65C", "self-cleavage kobs at 2500 uM GlcN6P": "< 1e-05"}, {"variant": "A12U U31G U56A", "self-cleavage kobs at 2500 uM GlcN6P": "0.00599 ± 0.0012"}, {"variant": "C11U A15G G37A G60A", "self-cleavage kobs at 2500 uM GlcN6P": "< 1e-05"}, {"variant": "G13U G38C A53U", "self-cleavage kobs at 2500 uM GlcN6P": "< 1e-05"}, {"variant": "A15U G37A G66C", "self-cleavage kobs at 2500 uM GlcN6P": "7.17e-05 ± 1.8e-05"}, {"variant": "A15U G44C A64G", "self-cleavage kobs at 2500 uM GlcN6P": "< 1e-05"}, {"variant": "G9U A12C A14C A48G U49A", "self-cleavage kobs at 2500 uM GlcN6P": "< 1e-05"}, {"variant": "C8U U55G C61U C68A", "self-cleavage kobs at 2500 uM GlcN6P": "< 1e-05"}, {"variant": "A12U G44C A53U", "self-cleavage kobs at 2500 uM GlcN6P": "6.46e-05 ± 1.9e-05"}, {"variant": "A14U U30G G38A U69G", "self-cleavage kobs at 2500 uM GlcN6P": "0.00012 ± 5.3e-05"}, {"variant": "G32C G38A U47A C58U A64C U69G", "self-cleavage kobs at 2500 uM GlcN6P": "0.000153 ± 4.8e-05"}, {"variant": "G7A C8G C10G G35C", "self-cleavage kobs at 2500 uM GlcN6P": "< 1e-05"}, {"variant": "A15G G32C G37U C70A", "self-cleavage kobs at 2500 uM GlcN6P": "0.000633 ± 0.00028"}, {"variant": "G32C G44A U45C", "self-cleavage kobs at 2500 uM GlcN6P": "< 1e-05"}, {"variant": "G43C C58G", "self-cleavage kobs at 2500 uM GlcN6P": "< 1e-05"}, {"variant": "A15G U46A A48U", "self-cleavage kobs at 2500 uM GlcN6P": "5.82e-05 ± 2.3e-05"}, {"variant": "G44A G51U U57A", "self-cleavage kobs at 2500 uM GlcN6P": "< 1e-05"}, {"variant": "A42C U56G U65C C71U", "self-cleavage kobs at 2500 uM GlcN6P": "< 1e-05"}, {"variant": "G9U A39U A48U C50A U57C G66A", "self-cleavage kobs at 2500 uM GlcN6P": "< 1e-05"}, {"variant": "G7C C11A C16U", "self-cleavage kobs at 2500 uM GlcN6P": "< 1e-05"}, {"variant": "A42C G51A A64U C68G", "self-cleavage kobs at 2500 uM GlcN6P": "< 1e-05"}, {"variant": "U56A G59A", "self-cleavage kobs at 2500 uM GlcN6P": "5.17e-05 ± 1.7e-05"}, {"variant": "G7C A33C A36C G66U", "self-cleavage kobs at 2500 uM GlcN6P": "< 1e-05"}, {"variant": "A14U C50A A53G C70A", "self-cleavage kobs at 2500 uM GlcN6P": "7.44e-05 ± 1.4e-05"}, {"variant": "A6C G7U U54C", "self-cleavage kobs at 2500 uM GlcN6P": "< 1e-05"}, {"variant": "G51U A53G U69G", "self-cleavage kobs at 2500 uM GlcN6P": "4.29e-05 ± 2e-05"}, {"variant": "G9U C16U A33U", "self-cleavage kobs at 2500 uM GlcN6P": "< 1e-05"}, {"variant": "C34U C50A C58G G62C", "self-cleavage kobs at 2500 uM GlcN6P": "< 1e-05"}, {"variant": "A39C G60A C61A", "self-cleavage kobs at 2500 uM GlcN6P": "< 1e-05"}, {"variant": "A6G G38A G40A G60C", "self-cleavage kobs at 2500 uM GlcN6P": "< 1e-05"}, {"variant": "A12G G32A G60U", "self-cleavage kobs at 2500 uM GlcN6P": "< 1e-05"}, {"variant": "A15U G35U G38U U49G U54A", "self-cleavage kobs at 2500 uM GlcN6P": "< 1e-05"}, {"variant": "C8U C11U A12U A36C A39G", "self-cleavage kobs at 2500 uM GlcN6P": "< 1e-05"}, {"variant": "A12C G29U U65A", "self-cleavage kobs at 2500 uM GlcN6P": "0.000175 ± 4.1e-05"}, {"variant": "A12G G40A G60A U69G", "self-cleavage kobs at 2500 uM GlcN6P": "< 1e-05"}, {"variant": "C16U G37U A42G G51U", "self-cleavage kobs at 2500 uM GlcN6P": "< 1e-05"}, {"variant": "C8A G35A G38A A53G", "self-cleavage kobs at 2500 uM GlcN6P": "< 1e-05"}, {"variant": "A12U A15C G44U", "self-cleavage kobs at 2500 uM GlcN6P": "4.81e-05 ± 1.7e-05"}, {"variant": "U47G G62U G63U U65G", "self-cleavage kobs at 2500 uM GlcN6P": "< 1e-05"}, {"variant": "A36C U54A C61A C67A", "self-cleavage kobs at 2500 uM GlcN6P": "6.51e-05 ± 2.2e-05"}, {"variant": "A6C A14C G32A G38U", "self-cleavage kobs at 2500 uM GlcN6P": "< 1e-05"}, {"variant": "A6U C8A U56A", "self-cleavage kobs at 2500 uM GlcN6P": "< 1e-05"}, {"variant": "A39U A52C C71A", "self-cleavage kobs at 2500 uM GlcN6P": "< 1e-05"}, {"variant": "A52U U55C A64G", "self-cleavage kobs at 2500 uM GlcN6P": "4.16e-05 ± 1.5e-05"}, {"variant": "U31A G32A A64G", "self-cleavage kobs at 2500 uM GlcN6P": "0.000169 ± 4.6e-05"}, {"variant": "A6G A14C A48G", "self-cleavage kobs at 2500 uM GlcN6P": "< 1e-05"}, {"variant": "G13U A39C U56G", "self-cleavage kobs at 2500 uM GlcN6P": "3.76e-05 ± 1.4e-05"}, {"variant": "A6G U31A", "self-cleavage kobs at 2500 uM GlcN6P": "0.000107 ± 3.2e-05"}, {"variant": "G38A U49A C50A", "self-cleavage kobs at 2500 uM GlcN6P": "< 1e-05"}, {"variant": "C8A A39C G59U A64C", "self-cleavage kobs at 2500 uM GlcN6P": "< 1e-05"}, {"variant": "G13C A33C G63A A64C", "self-cleavage kobs at 2500 uM GlcN6P": "< 1e-05"}, {"variant": "C34U G41A A52U", "self-cleavage kobs at 2500 uM GlcN6P": "< 1e-05"}, {"variant": "U54A C61A A64U C68U", "self-cleavage kobs at 2500 uM GlcN6P": "8.54e-05 ± 3.8e-05"}, {"variant": "A15U A33U G59U", "self-cleavage kobs at 2500 uM GlcN6P": "< 1e-05"}, {"variant": "C11G G13A G44A", "self-cleavage kobs at 2500 uM GlcN6P": "< 1e-05"}, {"variant": "G13C G29C U55A", "self-cleavage kobs at 2500 uM GlcN6P": "8.97e-05 ± 2.5e-05"}, {"variant": "A6U A36C U55G", "self-cleavage kobs at 2500 uM GlcN6P": "< 1e-05"}, {"variant": "C8U C11G G13C", "self-cleavage kobs at 2500 uM GlcN6P": "< 1e-05"}, {"variant": "A33C G37U A42G G44U A64G G66U", "self-cleavage kobs at 2500 uM GlcN6P": "< 1e-05"}, {"variant": "A6C C34A A39G U45A", "self-cleavage kobs at 2500 uM GlcN6P": "< 1e-05"}]}, {"variants_of": "B1", "experiment": "self-cleavage kobs at 10000 uM GlcN6P; higher = faster cleavage; RNA array", "details": "with glucosamine-6-phosphate", "how_it_was_run": "as §1", "units": {"self-cleavage kobs at 10000 uM GlcN6P": "s⁻¹"}, "values": [{"variant": "G44A G51U U57A", "self-cleavage kobs at 10000 uM GlcN6P": "< 1e-05"}, {"variant": "U56A G59A", "self-cleavage kobs at 10000 uM GlcN6P": "4.86e-05 ± 9.7e-06"}, {"variant": "A6G G38A G40A G60C", "self-cleavage kobs at 10000 uM GlcN6P": "< 1e-05"}, {"variant": "C8U C11U A12U A36C A39G", "self-cleavage kobs at 10000 uM GlcN6P": "< 1e-05"}, {"variant": "A12C G29U U65A", "self-cleavage kobs at 10000 uM GlcN6P": "0.000443 ± 7.6e-05"}, {"variant": "A6G U31A", "self-cleavage kobs at 10000 uM GlcN6P": "0.000258 ± 6e-05"}]}]}
